Data published in PMC10659949 (Protein Science : A Publication of the Protein Society, 2023).

What was measured:
Conditions in all cases: both partners purified
[1] = target: T1, biotinylated α-cobratoxin from Naja kaouthia (Naja kaouthia, UniProt P01391, biotin (1:1.25 toxin: biotin reagent molar ratio; site not stated)); test: BLI; […]; dissociation in HEPES-MES pH 5.5; 1:1 binding model, global fit; […]
T1 construct: source: bought: Latoxan (purified, from N. kaouthia), then biotinylated

[2] = target: T2, biotinylated α-bungarotoxin from Bungarus multicinctus (Bungarus multicinctus, UniProt P60615); test: BLI
T2 construct: source: bought: Latoxan (purified, from B. multicinctus), then biotinylated

[3] = target: T1, biotinylated α-cobratoxin from Naja …; test: BLI; […]) in HEPES-MES buffer pH 7.4; dissociation in HEPES-MES pH 7.4; 1:1 binding model, global fit; […]

T1 sequence (P01391 whole entry): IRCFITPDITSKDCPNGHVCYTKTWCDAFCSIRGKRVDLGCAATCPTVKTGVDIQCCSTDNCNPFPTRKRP
T2 sequence (P60615 22-95): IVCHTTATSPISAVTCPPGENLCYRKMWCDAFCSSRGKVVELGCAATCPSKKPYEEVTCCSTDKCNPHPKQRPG

B1: Fab TPL0197_01_C08 (Fab, V domains shown)
VH: EVQLVQSGAEVKKPGASVKVSCKASGYTFTSYGISWVRQAPGQGLEWMGWISAYNGNTNYAQKLQGRVTMTTDTSTSTAYMELRSLRSDDTAVYYCAREEYCSSTSCYVGNYYGMDVWGQGTLVTVSS
VL: DIQMTQSPSSLSASVGDRVTITCQASQDISNYLNWYQQKPGKAPKLLIYAASSLESGVPSRFSGSGSGTEFTLTITNLQVDDFATYYCQRYDSNFAFGQGTKVEIK
notes: also called Fab C08; source: ExpiCHO cells, purified (Ni-NTA / HisTrap Excel, desalting)
koff [1]: 0.00535 s⁻¹
binding result [2]: no binding (tested: 300 nM)
Kd [3]: 44.8 nM
koff [3]: 0.00076 s⁻¹
